Results taken from article doi:10.1101/2023.03.15.532784.

Target: Homo sapiens full-length TRPV4 (hTRPV4) with C-terminal FLAG-tag and 10xHis-tag (human) (UniProt Q9HBA0)
Assay: cryo-EM structure

Sequence of UniProt Q9HBA0 (Q9HBA0 whole entry): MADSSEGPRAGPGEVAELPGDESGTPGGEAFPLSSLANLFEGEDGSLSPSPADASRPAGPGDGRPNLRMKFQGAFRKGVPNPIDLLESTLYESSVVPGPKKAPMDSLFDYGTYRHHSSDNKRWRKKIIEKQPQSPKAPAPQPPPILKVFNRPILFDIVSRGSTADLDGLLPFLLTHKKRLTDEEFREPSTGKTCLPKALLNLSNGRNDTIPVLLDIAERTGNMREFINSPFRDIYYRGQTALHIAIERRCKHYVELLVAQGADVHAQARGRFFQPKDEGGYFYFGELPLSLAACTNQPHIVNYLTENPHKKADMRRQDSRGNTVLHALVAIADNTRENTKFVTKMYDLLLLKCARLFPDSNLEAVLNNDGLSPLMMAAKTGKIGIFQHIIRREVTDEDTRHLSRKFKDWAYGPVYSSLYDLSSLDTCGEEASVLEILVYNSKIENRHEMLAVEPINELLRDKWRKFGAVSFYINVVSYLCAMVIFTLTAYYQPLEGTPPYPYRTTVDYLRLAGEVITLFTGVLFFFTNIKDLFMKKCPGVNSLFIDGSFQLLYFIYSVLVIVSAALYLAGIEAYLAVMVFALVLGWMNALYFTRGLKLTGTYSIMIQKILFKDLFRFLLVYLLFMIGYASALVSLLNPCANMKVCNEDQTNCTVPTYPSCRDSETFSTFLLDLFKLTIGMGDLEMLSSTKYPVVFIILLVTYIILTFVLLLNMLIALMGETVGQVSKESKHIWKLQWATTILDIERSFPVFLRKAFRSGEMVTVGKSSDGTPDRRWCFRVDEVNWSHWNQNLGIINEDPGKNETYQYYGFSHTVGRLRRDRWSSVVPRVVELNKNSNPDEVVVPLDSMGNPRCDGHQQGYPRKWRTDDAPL

stoichiometry N (RhoA per TRPV4 subunit): 1
Substance: endogenous RhoA copurified with overexpressed TRPV4 (from UniProt P61586 1-193) (natural protein)
